Source: patent US20250122306A1 (SUTRO BIOPHARMA, published 2025)
Where a chain is given by its changes, count along the chain named.

T1: cynomolgus tissue factor (cynomolgus TF, Sino Bio #90885-C08H) (cynomolgus monkey, UniProt P13726 33-251 (human entry))
T1 construct: bought recombinant antigen; also called cyno TF
T1 chain: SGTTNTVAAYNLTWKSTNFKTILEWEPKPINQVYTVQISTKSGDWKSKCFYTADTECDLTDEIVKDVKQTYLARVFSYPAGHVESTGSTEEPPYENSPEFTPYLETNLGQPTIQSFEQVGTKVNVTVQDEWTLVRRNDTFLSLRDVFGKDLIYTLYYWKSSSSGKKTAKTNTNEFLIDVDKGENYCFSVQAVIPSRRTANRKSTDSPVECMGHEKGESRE

B1: SRP2799-B06 (antibody, IgG1, V domains shown)
VH: EVQLVESGGGLVQPGGSLRLSCAASGFNISDYNIHWVRQAPGKGLEWVGYIDPSNGYTYYADSVKGRFTISADTSKNTAYLQMNSLRAEDTAVYYCARDDQSVSSPFDYWGQGTLVTVSS
VL: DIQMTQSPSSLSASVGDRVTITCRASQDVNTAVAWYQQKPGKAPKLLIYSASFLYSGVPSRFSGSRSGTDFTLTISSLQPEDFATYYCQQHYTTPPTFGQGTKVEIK
notes: also called SRP2799-B06 (parent)
B2: 2842-B01 HC1/LC1 (antibody, V domains shown)
VH: QVQVVESGGGLVKPGGSLRLSCAASGFSISSYDMSWIRQAPGKGLEWIGIIGSNGRTYYADSVKGRFTISRNTNENTVYLQMNSLRAEDTAVYYCARGLYDGTGNIWGQGTLVTVSS
VL: DLQMTQSPSSLSASVGDRVTITCRASQSVYGNNWLSWYQQKPGKAPKLLIYGASKLASGVPSRFSGSGSGTQFTLTISSLQPEDFATYYCQGTYYSGDWYFAFGQGTKVEIK
notes: humanized rabbit antibody, variable regions fused to human IGHG1 and IGKC
B3: 2842-B01 HC1/LC2 (antibody, V domains shown)
VH: B2 VH
VL: ELVMTQSPPTLSLSPGERVTLSCRASQSVYGNNWLSWYQQKPGQAPRLLIYGASKLATSIPARFSGSGSGTQFTLTISSLQPEDFAVYYCQGTYYSGDWYFAFGQGTKVEIK
notes: as for B2
B4: SRP2901-F01 (antibody, V domains shown)
VH: B2 VH
VL: B2 VL with L2I, R24Q, Q72D, Q105G
notes: humanized rabbit antibody, variable regions fused to human IGHG1 and IGKC; also called 2842-B01 HC1/LC3
B5: SRP2901-E03 (antibody, V domains shown)
VH: B2 VH with Q1E, V4L, K13Q, I37V, A60P, N72D, T73N, N74S, E75K, Y79T
VL: B3 VL
notes: humanized rabbit antibody, variable regions fused to human IGHG1 and IGKC; also called 2842-B01 HC3/LC2
B6: SRP2901-D03 (antibody, V domains shown)
VH: B2 VH with Q1E, V4L, K13Q, I37V, A60P, N72D, T73N, N74S, E75K, Y79T
VL: B2 VL
notes: humanized rabbit antibody, variable regions fused to human IGHG1 and IGKC; also called 2842-B01 HC3/LC1
B7: SRP2901-B05 (antibody, V domains shown)
VH: QVQVQESGPGLVKPPGTLSLTCAVSGFSLSYYGVSWVRQPPGKGLEWIGTIDSSGRTYYNPSLKSRVTISNDNAPNTVSLKLSSVTAADTAVYYCARDFYGWNSGALDIWGQGTLVTVSS
VL: DLQLTQSPSTLSASVGDRVTITCRASQSVYSNKYLSWYQQKPGKAPKLLIYKASTLASGVPSRFSGSGSGTEFTLTISSLQPDDFATYYCAAAYSDDSDTAFGQGTKVEIK
notes: humanized rabbit antibody, variable regions fused to human IGHG1 and IGKC; also called 2842-G04 HC2/LC2
B8: Conjugate 7: 2900-A02 F241/F404 LP2 (antibody, human IgG1, kappa)
heavy: MEVQLVESGGGLVQPGGSLRLSCAASGFTISGYIIHWVRQAPGKGLEWVGYIDPSNGYTYYADSVKGRFTISADTSKNTAYLQMNSLRAEDTAVYYCARDDQSLSSPFDYWGQGTLVTVSSASTKGPSVFPLAPSSKSTSGGTAALGCLVKDYFPEPVTVSWNSGALTSGVHTFPAVLQSSGLYSLSSVVTVPSSSLGTQTYICNVNHKPSNTKVDKKVEPKSCDKTHTCPPCPAPELLGGPSVLFPPKPKDTLMISRTPEVTCVVVDVSHEDPEVKFNWYVDGVEVHNAKTKPREEQYNSTYRVVSVLTVLHQDWLNGKEYKCKVSNKALPAPIEKTISKAKGQPREPQVYTLPPSREEMTKNQVSLTCLVKGFYPSDIAVEWESNGQPENNYKTTPPVLDSDGSFLYSKLTVDKSRWQQGNVFSCSVMHEALHNHYTQKSLSLSPGK
light: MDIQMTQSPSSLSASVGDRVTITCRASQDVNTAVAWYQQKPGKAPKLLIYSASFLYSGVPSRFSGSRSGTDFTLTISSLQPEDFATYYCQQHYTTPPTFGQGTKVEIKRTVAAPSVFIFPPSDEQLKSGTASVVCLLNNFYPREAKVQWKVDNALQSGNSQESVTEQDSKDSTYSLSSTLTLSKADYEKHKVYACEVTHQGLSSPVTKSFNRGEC
modifications: pAMF at F241 and F404 (EU), each linked to LP2 (DBCO-beta-Glucuronide-PEG12-Exatecan)
notes: antibody-drug conjugate, DAR about 4; also called Trastuzumab LC SerOpt

These binders were tested against T2, tissue factor reagent of the Tissue Factor Activity Assay Kit (Abcam #ab108906) (UniProt P13726 33-295, limits assumed) (assay: cell-based or functional assay).

| Binder | FX conversion (% inhibition), 1000 nM antibody [%] |
| --- | --- |
| B1 | -1.01 |

Molecular target: T2, tissue factor reagent of the Tissue …
Test: cell-based or functional assay
Remark: another data set of the same source

| Binder | FX conversion (% inhibition), 1000 nM antibody [%] |
| --- | --- |
| B2 | -0.45 |
| B3 | -0.99 |
| B4 | 0.77 |
| B5 | -0.84 |
| B6 | -1.6 |
| B7 | 0.62 |

What follows are binders tested against T3, human tissue factor (human TF, Lake Pharma) (human, UniProt P13726 33-251, limits assumed) (assay: Biacore SPR kinetics, ADC captured on anti-Fc, 1:1 Langmuir fit).
T3 construct: bought recombinant antigen; also called CD142
Description: (§1) Anti-Fc polyclonal antibodies were immobilized onto a CM4 chip (Cytiva #BR100534) using amine coupling chemistry (Human Antibody Capture Kit, Cytiva #BR100839). The immobilization steps were carried out at a flow rate of […] in 1×HBS-EP+buffer (Cytiva #BR100669). The sensor surfaces were activated for 7 min with a mixture of NHS (0.05 M) and EDC (0.2 M). The Anti-Fc antibodies were injected over all 4 flow cells at a concentration of 25 μg/ml in 10 mM sodium acetate, pH 4.5, for 7 min. Ethanolamine (1 M, pH 8.5) was injected for 7 min to block any remaining activated groups. […] Off-rate and kinetic binding experiments were performed at 25° C. using 1×HBS-EP+buffer. Antibodies or ADCs were injected over the anti-Fc surface at a concentration of 3 μg/mL for 12 seconds at a flow rate of 10 μL/min on flow cells 2, 3 and 4, followed by a buffer wash for 30 seconds at the same flow rate. […] After capturing ligand (antibody) on the anti-Fc surface, the analyte (human TF, Lake Pharma; cynomolgus TF, Sino Bio #90885-C08H; mouse TF, R&D Systems #3178-PA) was bound for 180 seconds, followed by a 420 second dissociation phase at a flow rate of 50 μL/min. Between each ligand capture and analyte binding cycle, regeneration was carried out using 2 injections of 10 mM Glycine pH 2.0 for 30 seconds at 30 μL/min, followed by a 30 second buffer wash step. The data was fit with the Biacore T200 Evaluation software, using a 1-1 Langmuir binding model. KD (affinity, nM) was determined as a ratio of the kinetic rate constants calculated from the fits of the association and dissociation phases.

| Binder | Kd [nM] | koff [s⁻¹] | kon [M⁻¹ s⁻¹] |
| --- | --- | --- | --- |
| B8 | 4.11 | 0.00209 | 508000 |

Molecular target: T1, cynomolgus tissue factor (cynomolgus …)
Test: as above
Description: as §1

| Binder | Kd [nM] | koff [s⁻¹] | kon [M⁻¹ s⁻¹] |
| --- | --- | --- | --- |
| B8 | 1.77 | 0.00103 | 582000 |

These binders were tested against T4, human tissue factor on cells (human, UniProt P13726 33-295) (assay: flow cytometry on BxPC3 cells (TF positive), one-site fit of MFI).
T4 construct: cell-surface TF, transfected (HEK293T-humanTF) or endogenous (tumour lines, keratinocytes); the cell line is named under assay; also called HEK293T-humanTF; TF on BxPC3, primary human keratinocytes, NCI-H292, HCC1954, NCI-H1975
Text: HEK293T, BxPC3 cells (TF positive) and NCI-H1703 (TF negative) cells were obtained from ATCC (American Type Culture Collection) and maintained in DMEM: F12 (1:1), high glucose (Corning) supplemented with 10% heat-inactivated fetal bovine serum (ThermoScientific), 1× Penicillin/Streptomycin (Corning) and 2 mmol glutamax (Thermo Fisher Scientific). To generate cells that stably expressing human tissue factor (HEK293T-humanTF) or cynomolgus tissue factor (HEK293T-cynoTF), HEK293T cells were transfected with plasmid vectors that contain the corresponding protein sequence and stable clones were selected with puromycin.
For a fluorescence-activated cell sorting (FACS) cell-binding assay, cells were collected by Accutase and counted by the Vi-CELL Cell Viability Analyzersharvested and, then re-suspended in FACS buffer (DPBS buffer supplemented with 1% bovine serum albumin). A total of 200,000 cells in 100 μL were incubated on ice with 100 μL of anti-TF antibodies in each well of a 96-well plate. Cells were washed twice with ice-cold FACS buffer and then incubated on ice for 60 mins with 5 μg/mL Alexa 647-labeled donkey anti-human Fc antibody (Jackson ImmunoResearch). Unstained cells and cells stained with secondary antibody alone were used as controls. Cells were washed twice with FACS buffer and analyzed using a BD FACS Canto system. Geometric mean fluorescence intensities (MFI) were fitted using non-linear regression analysis with one site specific binding equation on GraphPad Prism (GraphPad Software; La Jolla, CA).

| Binder | Bmax (MFI) | Kd [nM] |
| --- | --- | --- |
| B4 | 25400 | 0.61 |
| B5 | 35200 | 0.386 |
| B6 | 29100 | 0.344 |
| B1 | 46300 | 4.1 |
| B7 | 42800 | 0.389 |

What follows are binders tested against T3, human tissue factor (human TF, Lake …) (assay: Biacore SPR, single-point off-rate (100 nM antigen), antibody captured on anti-Fc).
Description: (§2) Anti-Fc polyclonal antibodies were immobilized onto a CM4 chip (Cytiva #BR100534) using amine coupling chemistry (Human Antibody Capture Kit, Cytiva #BR100839). The immobilization steps were carried out at a flow rate of 25 μL/min in 1×HBS-EP+buffer (Cytiva #BR100669). The sensor surfaces were activated for 7 min with a mixture of N-hydroxysuccinimide (NHS, 0.05 M) and 1-ethyl-3-(3-dimethylaminopropyl)-carbodiimide (EDC, 0.2 M). The anti-Fc polyclonal antibodies were injected over all 4 flow cells at a concentration of 25 μg/mL in 10 mM sodium acetate, pH 4.5, for 7 min. Ethanolamine (1 M, pH 8.5) was injected for 7 min to block any remaining activated groups.
(§3) Off-rate and kinetic binding experiments were performed at 25° C. using 1×HBS-EP+buffer. Antibodies were injected over the anti-Fc surface at a concentration of 3 μg/mL for 12 seconds at a flow rate of 10 μL/min on flow cells 2, 3 and 4, followed by a buffer wash for 30 seconds at the same flow rate. Single point off-rate analysis was carried out using an antigen concentration of 100 nM. […] After capturing ligand (antibody) on the anti-Fc surface, the analyte (human TF, Lake Pharma; cynomolgus TF, Sino Bio #90885-C08H; mouse TF, R&D Systems #3178-PA) was bound for 180 seconds, followed by a 420 second dissociation phase at a flow rate of […]. Between each ligand capture and analyte binding cycle, regeneration was carried out using 2 injections of 10 mM glycine pH 2.0 for 30 seconds at 30 μL/min, followed by a 30 second buffer wash step.

| Binder | koff [s⁻¹] |
| --- | --- |
| B2 | 0.000727 |
| B3 | 0.000691 |
| B4 | 0.00054 |
| B5 | 0.000361 |
| B6 | 0.000416 |
| B1 | 0.00827 |
| B7 | 0.000736 |

Molecular target: T1, cynomolgus tissue factor (cynomolgus …)
Test: as above
Description: as §2, §3

| Binder | koff [s⁻¹] |
| --- | --- |
| B2 | 0.00352 |
| B3 | 0.00142 |
| B4 | 0.00117 |
| B5 | 0.000782 |
| B6 | 0.00187 |
| B1 | 0.00166 |
| B7 | 0.0017 |
